# Measurements reported in the supplement of paper PMC9112550, “Optimization of the antimicrobial peptide Bac7 by deep mutational scanning” (BMC Biology, 2022).
# Test system: Escherichia coli TOP10
# Assay: shrunken log2 fold change of peptide-encoding DNA abundance (4.5 h post-induction vs induction); higher = less antimicrobial activity (less host growth inhibition)
# Conditions: time post-induction: 4.5 h; library: site-saturation at positions 5, 18, 19, 20
# 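Note: peptides expressed intracellularly from a pBAD plasmid library in pooled LB shake-flask culture, induced with 0.3% L-arabinose, DNA abundance read by NGS, three biological replicates, DESeq2 with apeglm shrinkage.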
row,Sequence,shrunken log2 fold change
1,RRIRWRPPRLPRPRPRPFREPRP,-0.105
2,RRIRRRPPRLPRPRPRPECSPRP,-0.121
3,RRIRTRPPRLPRPRPRPNHPPRP,0.0542
4,RRIRGRPPRLPRPRPRPVWLPRP,0.649
5,RRIRNRPPRLPRPRPRPHMNPRP,-0.572
6,RRIRLRPPRLPRPRPRPTWHPRP,0.174
7,RRIRDRPPRLPRPRPRPAICPRP,0.391
8,RRIRIRPPRLPRPRPRPCDPPRP,0.00225
9,RRIRPRPPRLPRPRPRPRIVPRP,-0.0281
10,RRIRCRPPRLPRPRPRPFINPRP,-1.1
11,RRIRCRPPRLPRPRPRPSKQPRP,-0.209
12,RRIRKRPPRLPRPRPRPNITPRP,-0.0249
13,RRIRFRPPRLPRPRPRPMFAPRP,0.0307
14,RRIRFRPPRLPRPRPRPDCIPRP,-0.349
15,RRIRERPPRLPRPRPRPMQFPRP,-0.248
16,RRIRHRPPRLPRPRPRPCEEPRP,0.0167
17,RRIRKRPPRLPRPRPRPKHRPRP,0.237
18,RRIRLRPPRLPRPRPRPMESPRP,-0.0323
19,RRIRARPPRLPRPRPRPYSDPRP,-0.262
20,RRIRKRPPRLPRPRPRPDRTPRP,0.0739
21,RRIRWRPPRLPRPRPRPIFRPRP,0.0199
22,RRIRIRPPRLPRPRPRPFILPRP,-0.275
23,RRIRDRPPRLPRPRPRPKYRPRP,-0.0164
24,RRIRARPPRLPRPRPRPHVGPRP,0.34
25,RRIRHRPPRLPRPRPRPISEPRP,-0.0415

row,Sequence,shrunken log2 fold change
1,RRIRVRPPRLPRPRPRPQWNPRP,-0.386
2,RRIRGRPPRLPRPRPRPPISPRP,0.163
3,RRIRGRPPRLPRPRPRPECHPRP,1.62
4,RRIRYRPPRLPRPRPRPHVMPRP,-0.644
5,RRIRSRPPRLPRPRPRPGPFPRP,0.00218
6,RRIRERPPRLPRPRPRPEKQPRP,-0.00177
7,RRIRGRPPRLPRPRPRPMYHPRP,-0.242
8,RRIRPRPPRLPRPRPRPPPYPRP,0.0995
9,RRIRRRPPRLPRPRPRPGHNPRP,0.06
10,RRIRARPPRLPRPRPRPSCKPRP,-0.291
11,RRIRGRPPRLPRPRPRPAWTPRP,0.619
12,RRIRARPPRLPRPRPRPEAEPRP,1.61
13,RRIRVRPPRLPRPRPRPDRNPRP,-0.162
14,RRIRGRPPRLPRPRPRPTTFPRP,0.608
15,RRIRKRPPRLPRPRPRPPRIPRP,0.323
16,RRIRARPPRLPRPRPRPATFPRP,0.129
17,RRIRPRPPRLPRPRPRPALWPRP,0.612
18,RRIRQRPPRLPRPRPRPIWWPRP,0.127
19,RRIRSRPPRLPRPRPRPLSRPRP,0.0301
20,RRIRRRPPRLPRPRPRPAVDPRP,0.204
21,RRIRWRPPRLPRPRPRPQIAPRP,0.141
22,RRIRSRPPRLPRPRPRPPKAPRP,-0.259
23,RRIRRRPPRLPRPRPRPTWLPRP,0.633
24,RRIRNRPPRLPRPRPRPLELPRP,-0.0825
25,RRIRARPPRLPRPRPRPDPPPRP,0.901

row,Sequence,shrunken log2 fold change
1,RRIRQRPPRLPRPRPRPTFVPRP,-0.692
2,RRIRARPPRLPRPRPRPFDNPRP,0.098
3,RRIRLRPPRLPRPRPRPSGIPRP,-0.267
4,RRIRQRPPRLPRPRPRPPEFPRP,0.0335
5,RRIRDRPPRLPRPRPRPMERPRP,-0.0122
6,RRIRMRPPRLPRPRPRPPYCPRP,0.0371
7,RRIRGRPPRLPRPRPRPETQPRP,2.49
8,RRIRGRPPRLPRPRPRPMENPRP,0.47
9,RRIRLRPPRLPRPRPRPVDVPRP,0.0939
10,RRIRLRPPRLPRPRPRPCKEPRP,-0.0177
11,RRIRVRPPRLPRPRPRPQGMPRP,-1.02
12,RRIRARPPRLPRPRPRPYYQPRP,-0.374
13,RRIRYRPPRLPRPRPRPHPAPRP,-0.333
14,RRIRSRPPRLPRPRPRPIQWPRP,0.268
15,RRIRYRPPRLPRPRPRPLLEPRP,-0.17
16,RRIRMRPPRLPRPRPRPVEIPRP,0.00438
17,RRIRERPPRLPRPRPRPGAWPRP,-0.0396
18,RRIRGRPPRLPRPRPRPTVIPRP,0.107
19,RRIRTRPPRLPRPRPRPPCWPRP,0.171
20,RRIRHRPPRLPRPRPRPYNPPRP,-1.07
21,RRIRYRPPRLPRPRPRPTMYPRP,-0.33
22,RRIRQRPPRLPRPRPRPECVPRP,0.386
23,RRIRDRPPRLPRPRPRPAYMPRP,-0.342
24,RRIRERPPRLPRPRPRPIWIPRP,-0.222
25,RRIRHRPPRLPRPRPRPHIAPRP,-0.0808

row,Sequence,shrunken log2 fold change
1,RRIRKRPPRLPRPRPRPIARPRP,-0.0481
2,RRIRHRPPRLPRPRPRPQISPRP,-0.0457
3,RRIRFRPPRLPRPRPRPKEKPRP,-0.0715
4,RRIRGRPPRLPRPRPRPGYIPRP,-0.0887
5,RRIRFRPPRLPRPRPRPYFCPRP,-1.05
6,RRIRIRPPRLPRPRPRPMCWPRP,-0.00326
7,RRIRPRPPRLPRPRPRPDGEPRP,0.0766
8,RRIRGRPPRLPRPRPRPEEPPRP,0.106
9,RRIRKRPPRLPRPRPRPVNTPRP,-0.207
10,RRIRARPPRLPRPRPRPKHIPRP,-0.219
11,RRIRSRPPRLPRPRPRPMSQPRP,-0.0303
12,RRIRLRPPRLPRPRPRPNICPRP,-0.132
13,RRIRSRPPRLPRPRPRPPVKPRP,-0.136
14,RRIRLRPPRLPRPRPRPFQYPRP,-0.182
15,RRIRWRPPRLPRPRPRPRKIPRP,0.491
16,RRIRVRPPRLPRPRPRPTNYPRP,-0.519
17,RRIRERPPRLPRPRPRPYDHPRP,-0.397
18,RRIRWRPPRLPRPRPRPASHPRP,0.187
19,RRIRLRPPRLPRPRPRPAMCPRP,0.059
20,RRIRYRPPRLPRPRPRPCMDPRP,-0.214
21,RRIRRRPPRLPRPRPRPLPVPRP,0.373
22,RRIRYRPPRLPRPRPRPSHDPRP,-0.916
23,RRIRWRPPRLPRPRPRPIKTPRP,0.00902
24,RRIRSRPPRLPRPRPRPHFWPRP,0.0758
25,RRIRMRPPRLPRPRPRPPCIPRP,-0.143

row,Sequence,shrunken log2 fold change
1,RRIRCRPPRLPRPRPRPIHAPRP,-0.0479
2,RRIRNRPPRLPRPRPRPVIRPRP,-0.164
3,RRIRPRPPRLPRPRPRPHVHPRP,-0.254
4,RRIRDRPPRLPRPRPRPSAEPRP,0.162
5,RRIRGRPPRLPRPRPRPRYAPRP,0.399
6,RRIRVRPPRLPRPRPRPKWIPRP,-0.114
7,RRIRSRPPRLPRPRPRPFNRPRP,-0.363
8,RRIRERPPRLPRPRPRPVCSPRP,-0.239
9,RRIRMRPPRLPRPRPRPYKTPRP,0.0261
10,RRIRHRPPRLPRPRPRPAFMPRP,-0.193
11,RRIRTRPPRLPRPRPRPKENPRP,0.15
12,RRIRWRPPRLPRPRPRPMGPPRP,0.041
13,RRIRARPPRLPRPRPRPSIFPRP,-0.101
14,RRIRDRPPRLPRPRPRPKRFPRP,-0.017
15,RRIRHRPPRLPRPRPRPHMTPRP,-0.0109
16,RRIRDRPPRLPRPRPRPHIDPRP,-0.0782
17,RRIRERPPRLPRPRPRPGWAPRP,0.487
18,RRIRYRPPRLPRPRPRPPAEPRP,0.569
19,RRIRWRPPRLPRPRPRPTGPPRP,0.217
20,RRIRARPPRLPRPRPRPHAAPRP,0.635
21,RRIRPRPPRLPRPRPRPDLHPRP,-0.316
22,RRIRRRPPRLPRPRPRPWVSPRP,-0.0738
23,RRIRVRPPRLPRPRPRPTFDPRP,-0.0428
24,RRIRWRPPRLPRPRPRPTQDPRP,0.755
25,RRIRYRPPRLPRPRPRPQATPRP,-0.108

row,Sequence,shrunken log2 fold change
1,RRIRDRPPRLPRPRPRPPRWPRP,0.331
2,RRIRDRPPRLPRPRPRPVPSPRP,0.314
3,RRIRERPPRLPRPRPRPTYQPRP,-0.136
4,RRIRRRPPRLPRPRPRPCVHPRP,-0.0733
5,RRIRRRPPRLPRPRPRPYRSPRP,-0.0969
6,RRIRYRPPRLPRPRPRPRQFPRP,-0.379
7,RRIRDRPPRLPRPRPRPAHVPRP,-0.0599
8,RRIRGRPPRLPRPRPRPSDGPRP,-0.0367
9,RRIRCRPPRLPRPRPRPEVYPRP,-0.0302
10,RRIRNRPPRLPRPRPRPGAEPRP,0.374
11,RRIRMRPPRLPRPRPRPNFLPRP,-0.0651
12,RRIRHRPPRLPRPRPRPACMPRP,0.0463
13,RRIRHRPPRLPRPRPRPSKLPRP,-0.448
14,RRIRYRPPRLPRPRPRPPINPRP,-0.378
15,RRIRCRPPRLPRPRPRPYRIPRP,-0.263
16,RRIRCRPPRLPRPRPRPNHQPRP,-0.421
17,RRIRQRPPRLPRPRPRPWYAPRP,-0.134
18,RRIRDRPPRLPRPRPRPLEDPRP,-0.00783
19,RRIRTRPPRLPRPRPRPIDHPRP,-0.263
20,RRIRHRPPRLPRPRPRPLDAPRP,-0.148
21,RRIRARPPRLPRPRPRPIWRPRP,0.426
22,RRIRQRPPRLPRPRPRPDEAPRP,-0.0116
23,RRIRYRPPRLPRPRPRPGPKPRP,0.185
24,RRIRTRPPRLPRPRPRPFSIPRP,-0.284
25,RRIRYRPPRLPRPRPRPFEWPRP,0.0273
